{"source": "patent US20060246076A1", "molecular_target": "murine inducible nitric oxide synthase (murine) (UniProt P29477)", "data": [{"substance": "COX2-myc fragment 484-604 (from UniProt P35354)", "values": [{"measurement": "PGE2 formation reduction", "value": "> 50", "unit": "%"}]}]}
